{
  "source": "patent US20260226161A1",
  "about": "(EXELIXIS, published 2026)",
  "binders": {"B1": {"name": "P12 × A2 (1 × 1 format) (bispecific antibody)", "heavy 1": "DIQMTQSPSSLSASVGDRVTITCRASQSVSSAVAWYQQKPGKAPKLLIYSASSLYSGVPSRFSGSRSGTDFTLTISSLQPEDFATYYCQQFMLEPITFGQGTKVEIKGQPREPQVCTLPPSRDELTKNQVSLTCLVRGFYPSDIAVEWESNGQPENNYKTTPPVLDSDGSFFLYSKLTVDKSRWQQGNVFSCSVMHEALHNHYTQKSLSLSPGKDKTHTCPPCPAPEAAGGPSVFLFPPKPKDTLMISRTPEVTCVVVDVSHEDPEVKFNWYVDGVEVHNAKTKPREEQYNSTYRVVSVLTVLHQDWLNGKEYKCKVSNKALKAPIEKTISKAKGQPREPQVYTLPPSREEMTKNQVSLSCAVKGFYPSDIAVEWESNGQPENNYKTTPPVLDSDGSFFLVSKLTVDKSRWQQGNVFSCSVMHEALHNHYTQKSLSLSPGK", "light 1": "EVQLVESGGGLVQPGGSLRLSCAASGFTFSSYYIHWVRQAPGKGLEWVATINSRGGFTLYADSVKGRFTISADTSKNTAYLQMNSLRAEDTAVYYCARGYTLTPVLDYWGQGTLVTVSSAQPREPQVYTLPPCRDWLTKNQVSLTCLVKGFYPSDIAVEWESNGQPENNYKTTPPVLDSDGSFFLYSKLTVDKSRWQQGNVFSCSVMHEALHNHYTQKSLSLSPGK", "heavy 2": "not shown", "light 2": "EVQLVESGGGLVQPGGSLRLSCAASGFTFSSYYIHWVRQAPGKGLEWVASYVPEDGYTDYADSVKGRFTISADTSKNTAYLQMNSLRAEDTAVYYCARSSDFIPWTSSGGMDYWGQGTLVTVSSASTKGPSVFPLAPSSKSTSGGTAALGCLVKDYFPEPVTVSWNSGALTSGVHTFPAVLQSSGLYSLSSVVTVPSSSLGTQTYICNVNHKPSNTKVDKKVEPKSC", "notes": "One PD-L1 site, one NKG2A site; also called P12×A2, sFc; P12 × A2 sFc"}},
  "key": {"[1]": {"biological_target": "T1, NKG2A expressed on KHYG-1 cells (endogenous) (human, UniProt P26715 1-233; Q13241 1-179)", "T1 construct": "whole, on cells; Surface NKG2A copy number of approximately 10-20K; also called KHYG-1 cells expressing endogenous NKG2A; NKG2A-expressing cells", "T1 sequence (P26715 whole entry, chain 1 of 2)": "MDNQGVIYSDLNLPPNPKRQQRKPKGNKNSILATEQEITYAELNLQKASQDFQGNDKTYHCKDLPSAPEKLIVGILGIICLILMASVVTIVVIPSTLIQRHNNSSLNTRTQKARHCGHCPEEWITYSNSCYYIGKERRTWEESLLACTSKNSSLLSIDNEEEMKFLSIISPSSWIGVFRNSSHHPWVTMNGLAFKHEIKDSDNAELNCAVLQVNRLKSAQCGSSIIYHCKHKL", "T1 sequence (Q13241 whole entry, chain 2 of 2)": "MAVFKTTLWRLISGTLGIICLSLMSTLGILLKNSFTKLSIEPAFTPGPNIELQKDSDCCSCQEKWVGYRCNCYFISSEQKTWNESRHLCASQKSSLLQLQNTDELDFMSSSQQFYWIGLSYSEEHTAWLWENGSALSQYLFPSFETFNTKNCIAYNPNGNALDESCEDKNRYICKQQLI", "assay": "flow cytometry on KHYG-1 cells expressing endogenous NKG2A", "experimental": "(§1) Cells were collected by centrifugation at 400×g for 7 minutes and primary antibody was removed. 50 μL per well of AF488 goat anti human IgG Fab (Jackson Immuno Research 109-547-003) at 1:100 dilution was added. Plates were placed at 4° C. for 30 minutes.\n(§2) Cells were collected by centrifugation at 400×g for 7 minutes and secondary antibody was removed. Cells were resuspended in 50 μL per well of PBS and analyzed by flow cytometry. Binding curves were calculated using the mean fluorescence intensity (MFI) of the FITC fluorescence signal on the cells. Bispecific antibody binding was evaluated in KHYG-1 cells expressing endogenous NKG2A and in MC/CAR cells expressing PD-L1. Cells were harvested and assayed for binding as described above."}, "[2]": {"biological_target": "T2, cynomolgus NKG2A/CD94 (soluble antigen of the equilibrium assay) (cynomolgus, UniProt Q68VD2 94-233; Q68VD4 32-179, Biotinylated in the Octet assays of Example 2; state in the SPR equilibrium assay not seen.)", "T2 construct": "also called Cyno NKG2A/CD94; copies: 1 + 1", "T2 sequence (NKG2A, as listed by the source limits assumed, chain 1 of 2)": "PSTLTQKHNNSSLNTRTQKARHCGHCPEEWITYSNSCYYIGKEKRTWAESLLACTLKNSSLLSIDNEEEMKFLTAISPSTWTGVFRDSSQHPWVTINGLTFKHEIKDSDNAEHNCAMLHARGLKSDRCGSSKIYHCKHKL", "T2 sequence (CD94, as listed by the source limits assumed, chain 2 of 2)": "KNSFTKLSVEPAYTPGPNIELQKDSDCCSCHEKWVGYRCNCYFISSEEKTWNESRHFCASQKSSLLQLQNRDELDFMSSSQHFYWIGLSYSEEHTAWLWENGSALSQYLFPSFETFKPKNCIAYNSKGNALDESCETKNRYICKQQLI", "assay": "SPR equilibrium response, Langmuir isotherm; antibody on chip, soluble antigen", "experimental": "In addition, a method using an equilibrium approach was performed. Kd determinations for cynomolgus NKG2A/CD94 were performed by measuring the signal response at equilibrium. […] The equilibrium response signals and corresponding antigen concentrations were then input into a Langmuir binding isotherm model, and the Kd was determined through nonlinear regression. Averages and standard deviations were calculated from 24 replicate chip locations for each molecule."}, "[3]": {"biological_target": "T1, NKG2A expressed on KHYG-1 cells …", "assay": "flow cytometry competition; inhibition of HLA-E tetramer binding to KHYG-1 cells; first of the two EC50 values printed for P12×A2; the patent does not say what tells them apart", "experimental": "(§3) 15 μL per well of binder dilution at 2× concentration was plated in a 96-well plate (Costar 3897). 15 μL per well of cell suspension at 5×10⁶ cells per mL was added. Plates were placed at 4° C. for 30 minutes. Following the incubation, 5 μL per well of Fc block (BD Pharmingen Cat #564220) was added at a final concentration of 500 ng per well. Plates were placed at 4° C. for 10 minutes. […] Plates were placed at 4° C. for 1 hour. Following the incubation, 100 μL per well of PBS was added and plate was centrifuged at 400×g for 7 minutes. Supernatant was removed by flicking the plate. Cells were resuspended in 50 μL per well of PBS and analyzed by flow cytometry (Intellicyt)."}, "[4]": {"biological_target": "T3, PD-L1 expressed on cells (UniProt Q9NZQ7 19-290, limits assumed)", "T3 sequence (Q9NZQ7 19-290 limits assumed)": "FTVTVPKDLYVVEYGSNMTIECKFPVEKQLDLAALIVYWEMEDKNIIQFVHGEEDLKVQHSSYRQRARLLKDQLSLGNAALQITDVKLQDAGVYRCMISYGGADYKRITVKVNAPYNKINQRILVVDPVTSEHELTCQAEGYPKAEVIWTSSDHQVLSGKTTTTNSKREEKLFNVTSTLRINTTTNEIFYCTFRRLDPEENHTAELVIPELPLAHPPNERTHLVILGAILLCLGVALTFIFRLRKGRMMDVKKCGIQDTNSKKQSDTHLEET", "assay": "cell-based or functional assay"}, "[5]": {"biological_target": "T4, Human PD-L1 with His tag (AcroBiosystems) (human, UniProt Q9NZQ7 19-238)", "T4 construct": "Bought protein; also called hPD-L1; not shown: His tag", "T4 sequence (Q9NZQ7 19-238 limits assumed)": "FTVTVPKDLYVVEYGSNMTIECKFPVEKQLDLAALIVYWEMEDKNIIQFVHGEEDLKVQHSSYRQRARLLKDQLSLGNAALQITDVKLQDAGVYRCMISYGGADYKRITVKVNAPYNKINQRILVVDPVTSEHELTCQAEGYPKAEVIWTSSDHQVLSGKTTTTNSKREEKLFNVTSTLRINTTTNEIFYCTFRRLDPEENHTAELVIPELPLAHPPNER", "assay": "SPR (Carterra), antibody on chip, soluble antigen"}, "[6]": {"biological_target": "Cyno PD-L1 (cyno, UniProt G7PSE7 19-238)", "sequence (G7PSE7 entry or part of it limits assumed)": "as the sequence (Q9NZQ7 19-238 limits assumed) above, with A33T, A34S, S62N, R68Q, Q82R, F173L, T185A, T192I, H215L counted along it", "assay": "SPR (Carterra), antibody on chip, soluble antigen"}, "[7]": {"biological_target": "T5, Human NKG2A & CD94 with mouse IgG2a Fc tag (AcroBiosystems) (human, UniProt P26715 94-233; Q13241 32-179, limits assumed)", "T5 construct": "Bought soluble antigen of the Carterra assay; also called hNKG2A; not shown: mouse IgG2a Fc tag", "T5 sequence (P26715 94-233 limits assumed, chain 1 of 2)": "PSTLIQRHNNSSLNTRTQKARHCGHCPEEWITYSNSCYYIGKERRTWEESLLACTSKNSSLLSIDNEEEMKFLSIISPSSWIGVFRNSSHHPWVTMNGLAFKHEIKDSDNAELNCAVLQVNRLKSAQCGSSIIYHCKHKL", "T5 sequence (Q13241 32-179 limits assumed, chain 2 of 2)": "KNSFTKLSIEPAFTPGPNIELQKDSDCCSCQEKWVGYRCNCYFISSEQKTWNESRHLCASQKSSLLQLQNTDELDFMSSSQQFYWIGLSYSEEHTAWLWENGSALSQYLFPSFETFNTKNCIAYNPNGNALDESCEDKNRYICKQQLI", "assay": "SPR (Carterra), antibody on chip, soluble antigen"}, "[8]": {"biological_target": "T3, PD-L1 expressed on cells", "assay": "flow cytometry on MC/CAR cells expressing PD-L1", "experimental": "as §1, §2"}, "[9]": {"biological_target": "T1, NKG2A expressed on KHYG-1 cells …", "assay": "flow cytometry competition; inhibition of HLA-E tetramer binding to KHYG-1 cells; second of the two EC50 values printed for P12×A2; the patent does not say what tells them apart", "experimental": "as §3"}},
  "data": [
    {"binder": "B1", "values": [
      {"measurement": "EC50", "setting": "[1]", "value": 4.66, "unit": "nM"},
      {"measurement": "Kd", "setting": "[2]", "value": 42, "unit": "nM"},
      {"measurement": "EC50", "setting": "[3]", "value": 21, "unit": "nM"},
      {"measurement": "IC50 of inhibiting PD-1/PD-L1 interaction in PD-L1+MDA-MB-231 cells (PD-1/PD-L1 Signaling Bioassay, chemiluminescent signal)", "setting": "[4]", "value": 0.408, "unit": "nM"},
      {"measurement": "Kd", "setting": "[5]", "value": 0.13, "unit": "nM"},
      {"measurement": "koff", "setting": "[5]", "value": "7e-05", "unit": "s⁻¹"},
      {"measurement": "kon", "setting": "[5]", "value": 530000, "unit": "M⁻¹ s⁻¹"},
      {"measurement": "Kd", "setting": "[6]", "value": 0.1, "unit": "nM"},
      {"measurement": "koff", "setting": "[6]", "value": "6e-05", "unit": "s⁻¹"},
      {"measurement": "kon", "setting": "[6]", "value": 560000, "unit": "M⁻¹ s⁻¹"},
      {"measurement": "Kd", "setting": "[7]", "value": 0.21, "unit": "nM"},
      {"measurement": "koff", "setting": "[7]", "value": "8e-05", "unit": "s⁻¹"},
      {"measurement": "kon", "setting": "[7]", "value": 360000, "unit": "M⁻¹ s⁻¹"},
      {"measurement": "EC50", "setting": "[8]", "value": 55.9, "unit": "nM"},
      {"measurement": "EC50", "setting": "[9]", "value": 65.2, "unit": "nM"}
    ]}
  ]
}
